Laboratory results reported in patent US20210395393A1 (published 2021).
Where a chain is given by its changes, count along the chain named.

Columns and labels:
[1] = molecular target: T1, recombinant human tPA (rh-tPA: abcam ab92637) (UniProt P00750 36-562); assay: ELISA
[2] = molecular target: T1, recombinant human tPA (rh-tPA: abcam …); assay: ELISA; remark: listed apart in the source
[3] = molecular target: T1, recombinant human tPA (rh-tPA: abcam …); assay: ELISA; Plate 2, PBS, 4°C
[4] = molecular target: T1, recombinant human tPA (rh-tPA: abcam …); assay: ELISA; Plate 1, human serum, 37°C
[5] = molecular target: T1, recombinant human tPA (rh-tPA: abcam …); assay: ELISA; Plate 1, PBS, 4°C
[6] = molecular target: T1, recombinant human tPA (rh-tPA: abcam …); assay: ELISA; Plate 2, cynomolgus serum, 37°C
[7] = molecular target: T1, recombinant human tPA (rh-tPA: abcam …); assay: ELISA; Plate 2, mouse serum, 37°C
[8] = molecular target: T1, recombinant human tPA (rh-tPA: abcam …); assay: ELISA; Plate 1, PBS, 4°C; remark: listed apart in the source
[9] = molecular target: T1, recombinant human tPA (rh-tPA: abcam …); assay: ELISA; Plate 2, cynomolgus serum, 37°C; remark: listed apart in the source
[10] = molecular target: T1, recombinant human tPA (rh-tPA: abcam …); assay: ELISA; Plate 1, human serum, 37°C; remark: listed apart in the source
[11] = molecular target: T1, recombinant human tPA (rh-tPA: abcam …); assay: ELISA; Plate 1, PBS, 37°C
[12] = molecular target: T1, recombinant human tPA (rh-tPA: abcam …); assay: ELISA; Plate 2, mouse serum, 37°C; remark: listed apart in the source
[13] = molecular target: T1, recombinant human tPA (rh-tPA: abcam …); assay: ELISA; Plate 2, PBS, 4°C; remark: listed apart in the source
[14] = molecular target: T1, recombinant human tPA (rh-tPA: abcam …); assay: ELISA; Plate 2, mouse serum, 37°C; remark: listed apart in the source
[15] = molecular target: T1, recombinant human tPA (rh-tPA: abcam …); assay: ELISA; Plate 1, PBS, 4°C; remark: listed apart in the source
[16] = molecular target: T1, recombinant human tPA (rh-tPA: abcam …); assay: ELISA; Plate 2, PBS, 4°C; remark: listed apart in the source
[17] = molecular target: T1, recombinant human tPA (rh-tPA: abcam …); assay: ELISA; Plate 1, human serum, 37°C; remark: listed apart in the source
[18] = molecular target: T1, recombinant human tPA (rh-tPA: abcam …); assay: ELISA; Plate 1, PBS, 37°C; remark: listed apart in the source
[19] = molecular target: T1, recombinant human tPA (rh-tPA: abcam …); assay: ELISA; purified Fab

T1 sequence (P00750 36-562): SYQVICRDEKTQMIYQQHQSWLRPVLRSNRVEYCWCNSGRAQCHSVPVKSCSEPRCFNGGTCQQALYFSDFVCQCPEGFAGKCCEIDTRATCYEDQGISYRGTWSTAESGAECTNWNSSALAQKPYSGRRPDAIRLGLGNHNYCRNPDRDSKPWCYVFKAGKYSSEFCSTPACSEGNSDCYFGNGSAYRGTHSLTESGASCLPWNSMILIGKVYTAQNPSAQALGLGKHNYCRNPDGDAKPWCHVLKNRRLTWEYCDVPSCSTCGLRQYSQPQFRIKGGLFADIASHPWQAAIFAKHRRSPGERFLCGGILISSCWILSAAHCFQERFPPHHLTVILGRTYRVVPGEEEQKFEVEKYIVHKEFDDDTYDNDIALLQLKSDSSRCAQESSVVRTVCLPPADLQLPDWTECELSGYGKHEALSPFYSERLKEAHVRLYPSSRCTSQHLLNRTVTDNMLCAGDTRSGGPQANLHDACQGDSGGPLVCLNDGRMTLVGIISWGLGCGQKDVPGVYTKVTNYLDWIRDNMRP

B1: TPAi-1 RHP/RKA (antibody, V domains shown)
VH: QVQLVQSGAEVKKPGASVKVSCKASGNTSYWINWVRQATGQGLEWMGRIDPGGGSTGYAQKFQGRVTMTRDTSISTAYMELSSLRSEDTAVYYCASYYYAMAYWGQGTLVTVSS
VL: DVVMTQSPLSLPVTPGEPASISCRSSQSIVHSNGNTYLDWYLQKPGQSPQLLIYKVSNRASGVPDRFSGSGSGTDFTLKISRVEAEDVGVYYCFQGSHVPWTFGGGTKVEIK
Work on B1 yielded an IC50 [1] of 316 pM, an IC50 [2] of 365 pM and an EC50 [3] of 304 pM. It also gave an EC50 [4] of 404 pM, an EC50 [5] of 229 pM and an EC50 [6] of 514 pM. It also gave an EC50 [7] of 403 pM.

B2: TPAi-1 RHE/RKA (antibody, V domains shown)
VH: B1 VH with D71N
VL: B1 VL
B2 showed an EC50 [8] of 596 pM, an EC50 [9] of 717 pM and an EC50 [10] of 647 pM. For the same binder, the EC50 [11] was 972 pM, the EC50 [12] was 694 pM and the EC50 [13] was 510 pM.

B3: TPAi-1 RHP/RKA Fab (Fab, V domains shown)
VH: B1 VH
VL: B1 VL
Binder B3 has an EC50 [14] of 966 pM, an EC50 [15] of 1450 pM and an EC50 [16] of 1750 pM. It also gave an EC50 [17] of 978 pM, an EC50 [18] of 2160 pM and an IC50 [19] of 1620 pM.
